± gives the standard deviation of the averaged measurements.
The sequences below were run on Saccharomyces cerevisiae (assay: protein stability index of tFT-peptide fusion (C-terminal peptide) (PSI (0-1 scale)); higher = more stable (slower turnover)). Details: genetic background: wild type; temperature: 30 C.
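Further: PSI is a weighted mean of sequencing reads over stability bins, variants kept only with over 10 reads, mCherry proximal and sfGFP distal, peptide attached via GGGS linker.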

Sequence	protein stability index
SGSRRTSRVGSR	0.721 ± 0.0087
SGSRWYYSLGRG	0.709 ± 0.043
SGSSLCSVGWLV	0.718 ± 0.044
SGSWRFYPSTTC	0.706 ± 0.056
SGTRDELVFVAV	0.6755 ± 0.0061
SGVEGTRQGSVS	0.711 ± 0.068
SGVLKHLRKESS	0.641 ± 0.018
SGVRSPALLGRC	0.68 ± 0.042
SHGELLLGPVFL	0.748 ± 0.009
SHGQAPFNVLVA	0.596 ± 0.025
SHHKAFFDLVFM	0.7578 ± 0.0051
SHLFPCRSSFPP	0.656 ± 0.037
SHLGPYPAPARP	0.7185 ± 0.006
SHLKEHREEELE	0.647 ± 0.0097
SHLSTLSHPPPP	0.637 ± 0.043
SHRLPPPPPPPS	0.758 ± 0.14
SHSHMRRLKMYR	0.717 ± 0.089
SHTAWEQRVPKQ	0.729 ± 0.02
SHVPLAKLSLFP	0.756 ± 0.024
SIDGFAFCVGGV	0.737 ± 0.058
SIKKFRTRKRRR	0.67 ± 0.12
SIRHPYEFFARS	0.738 ± 0.031
SIRLGGSVVELV	0.694 ± 0.041
SISIGVRHSRPP	0.609 ± 0.033
SISLSLSQSDRR	0.614 ± 0.016
SKEKKRPDNKTF	0.71 ± 0.048

Sequence	protein stability index
SKKKRQNQLIKM	0.7527 ± 0.0032
SKKKTKKRRKKN	0.698 ± 0.023
SKNEFKKIMKKY	0.711 ± 0.083
SKSNIAGIRKEL	0.6774 ± 0.0063
SKSRGVIVTVMV	0.5681 ± 0.00072
SLAPPVILPSHP	0.659 ± 0.041
SLATFRTLLPES	0.667 ± 0.019
SLAVAPHIATQQ	0.701 ± 0.011
SLAVDVRVSWEI	0.704 ± 0.017
SLCPRVCSERVP	0.722 ± 0.031
SLCWDVLFLPVV	0.736 ± 0.064
SLELWPGAKGAP	0.702 ± 0.1
SLFFFNFPLCAL	0.559 ± 0.019
SLFGMACDGGLP	0.6873 ± 0.0043
SLFLFCLRCLQF	0.576 ± 0.037
SLFPSEPRPPSL	0.719 ± 0.03
SLGAPPAVVSSY	0.6822 ± 0.0033
SLHSPPHPPPHA	0.673 ± 0.011
SLLHSIPSSPPF	0.729 ± 0.041
SLLLPLFLPPSL	0.723 ± 0.0086
SLLLPPPPPSPH	0.731 ± 0.042
SLLPAPTPCPPP	0.701 ± 0.033
SLLPGGHRWAGI	0.659 ± 0.025
SLLRSPSLPQSN	0.634 ± 0.095
SLLSSPFPCLRQ	0.766 ± 0.087
SLLYIQDFVSGV	0.683 ± 0.019

Sequence	protein stability index
SLMLDGRSTKAA	0.6912 ± 0.0035
SLMRRFRGQWRV	0.71 ± 0.06
SLPCLFPPPLLP	0.726 ± 0.045
SLPPDPPSSYSP	0.632 ± 0.044
SLPPPAAPLPFP	0.7346 ± 0.00096
SLPPPPSQLRPL	0.726 ± 0.015
SLPPPSPSPSLS	0.649 ± 0.034
SLPPTLPPRSCP	0.6211 ± 0.0019
SLPQAPLRPAPS	0.656 ± 0.046
SLPRSHRRGPVP	0.663 ± 0.014
SLPSWPPAPLPG	0.703 ± 0.025
SLPVLSSRTSIQ	0.687 ± 0.012
SLPVSSPIRILF	0.6326 ± 0.0015
SLQAYASALIHV	0.687 ± 0.0098
SLRKVTEKDKRT	0.677 ± 0.064
SLRRLSPLPLAS	0.7 ± 0.04
SLSEEWAHIGGL	0.643 ± 0.0072
SLSERPKFSIYV	0.656 ± 0.049
SLSGSPIPFIRL	0.764 ± 0.072
SLSIAPAPLDFP	0.655 ± 0.084
SLSLFPPRRLLP	0.734 ± 0.088
SLSSTVPRFCEV	0.6241 ± 0.0028
SLSVPTTLFLFS	0.7 ± 0.017
SLTLVCRKYILL	0.633 ± 0.024
SLVAALHRPTFV	0.679 ± 0.034
SLVCCGPVWVFL	0.573 ± 0.022

Sequence	protein stability index
SLVLLSACRFGF	0.654 ± 0.073
SLVPFSPPRSPP	0.689 ± 0.083
SLVVFGFGGYLL	0.686 ± 0.021
SLWPLFVDVVCL	0.498 ± 0.042
SMCAFRPFPFSS	0.70891 ± 0.00011
SMCSVAGVWWLG	0.728 ± 0.062
SMDISYLISFQR	0.7426 ± 0.0049
SMYHSCTFRTTV	0.586 ± 0.021
SMYLPSSSDVLS	0.736 ± 0.014
SNGTRGSKLPAI	0.685 ± 0.055
SNIGFLLCSLFL	0.59078 ± 4.5e-05
SNLYNSENVPVD	0.709 ± 0.041
SPAARPLFRTIS	0.61 ± 0.054
SPAPPSQFPSFA	0.818 ± 0.11
SPCPLTVAPIIP	0.644 ± 0.056
SPCTPSRLQPSS	0.65 ± 0.027
SPDHATYHNPAR	0.76 ± 0.074
SPFPAPCVFPSR	0.761 ± 0.1
SPGARRRGGAGR	0.659 ± 0.047
SPIHSLNYASSC	0.7217 ± 0.0015
SPLAPLPPPPLT	0.884 ± 0.1
SPLDEYIDSVPA	0.726 ± 0.017
SPLLLLPAPPPP	0.673 ± 0.014
SPLLPPRSPPLP	0.752 ± 0.032
SPLLVLTPLFPP	0.651 ± 0.074
SPLPHPSPPPSP	0.662 ± 0.016

Sequence	protein stability index
SPLPPPRSSSPP	0.76 ± 0.14
SPLPPPSHALLP	0.712 ± 0.089
SPLPRSLPPLPP	0.654 ± 0.019
SPLSLPPPHPPP	0.654 ± 0.0069
SPNAPMPPRPRH	0.594 ± 0.033
SPPICLPLFRVR	0.65 ± 0.017
SPPLCAPPHPPA	0.679 ± 0.04
SPPLLHLSNSRH	0.654 ± 0.059
SPPLNSFPPTPP	0.62 ± 0.068
SPPLPPLPLLQL	0.696 ± 0.021
SPPLRSRSGSFL	0.699 ± 0.062
SPPLTSPPPAPP	0.7 ± 0.017
SPPPALPPSSPS	0.657 ± 0.025
SPPPAPPRSGPL	0.651 ± 0.051
SPPPGPAPPMSP	0.731 ± 0.03
SPPPHPPAAPDS	0.6626 ± 0.0058
SPPPLPPSPLSS	0.701 ± 0.046
SPPPLPPVRPPV	0.722 ± 0.033
SPPPMSPLLRPA	0.653 ± 0.033
SPPPPLELIPSP	0.534 ± 0.025
SPPPPSRLPPPP	0.748 ± 0.096
SPPRPPPPSPPF	0.768 ± 0.015
SPPRPPPVPPPP	0.617 ± 0.054
SPPRSSRTHAPP	0.7108 ± 0.006
SPPSLRLPPPPA	0.772 ± 0.021
SPPSLYRRVRPS	0.63 ± 0.084

Sequence	protein stability index
SPPSRASFPPPS	0.682 ± 0.022
SPRLPPPPPLPP	0.651 ± 0.11
SPRLPPSTHSPP	0.677 ± 0.15
SPRLSSCPPAGF	0.749 ± 0.017
SPRPLFPPHRPT	0.651 ± 0.044
SPRPPLLLPVTV	0.53 ± 0.26
SPRRFVVVSGQG	0.643 ± 0.012
SPRRSPLLLLPL	0.723 ± 0.064
SPRSATAPPPLP	0.71 ± 0.028
SPSFSLLFPFLL	0.657 ± 0.037
SPSPLSLRLPPP	0.632 ± 0.028
SPSPPLPSRLIL	0.673 ± 0.026
SPSRPRPPPHAP	0.7624 ± 0.00086
SPSSFLLSPPIP	0.764 ± 0.071
SPSTPPPPSPPV	0.647 ± 0.017
SPTALPPPPVPP	0.662 ± 0.041
SPTLSPPPPLAL	0.667 ± 0.031
SPTRMSAFVRLD	0.739 ± 0.071
SPTSPAPPPNAS	0.67 ± 0.0092
SPWERTEMTFPR	0.822 ± 0.18
SPYVGVALGGVW	0.704 ± 0.012
SQVRYIANRKDG	0.635 ± 0.091
SREEWQSSKLRD	0.784 ± 0.089
SREYKRRTPSSK	0.718 ± 0.03
SRFEPLSCEQCS	0.66 ± 0.05
SRFFFSPRLCVP	0.604 ± 0.033

Sequence	protein stability index
SRFKTVDCWKVW	0.697 ± 0.097
SRFLTPLPLAMF	0.592 ± 0.018
SRFQFCCCLFFF	0.578 ± 0.0074
SRGAFGPCEFFL	0.712 ± 0.0076
SRGGGRSEGGEG	0.695 ± 0.033
SRGGSGKDTGRT	0.657 ± 0.04
SRGLVVYMDALR	0.692 ± 0.028
SRGMRNPLSADR	0.645 ± 0.098
SRGRTRLVAPIV	0.66 ± 0.14
SRHIFAPFGLFG	0.726 ± 0.056
SRHVAGVGGGEV	0.652 ± 0.019
SRKIAPNGTATL	0.706 ± 0.012
SRKTDTRLTMIN	0.692 ± 0.032
SRLMGLGLLCVG	0.5272 ± 0.0013
SRPPILAHPTPS	0.707 ± 0.049
SRPPRSPPLPPV	0.686 ± 0.046
SRPPSPPLCHPA	0.736 ± 0.054
SRPRPPHTLLRP	0.688 ± 0.065
SRPRTTRKAASS	0.674 ± 0.012
SRRDRGHWSVRS	0.6198 ± 0.0039
SRRETKTRLAPN	0.656 ± 0.14
SRRGIRSSSAAR	0.714 ± 0.065
SRRRIENNKTEN	0.695 ± 0.015
SRRVVDVGVIRV	0.635 ± 0.02
SRSLHGTEEYRE	0.644 ± 0.099
SRSPPRSGVPPL	0.716 ± 0.032

Sequence	protein stability index
SRTDGLIYTALI	0.676 ± 0.021
SRTVSLDYHFMS	0.7319 ± 0.00097
SRTYAHSPPLPA	0.699 ± 0.027
SRVVCVGGRLFG	0.702 ± 0.045
SRYRSTSESMKV	0.667 ± 0.038
SRYSAVSVSRWH	0.696 ± 0.041
SSALVLSGPPHS	0.782 ± 0.1
SSAPCLRIFVTR	0.737 ± 0.062
SSCRKFLFAIRR	0.685 ± 0.02
SSGASRWSRSKF	0.762 ± 0.074
SSGVIIGRIAVK	0.603 ± 0.033
SSIEAGFSSIVI	0.685 ± 0.04
SSIGPTECSYFS	0.678 ± 0.088
SSLLPSPPPPLP	0.677 ± 0.028
SSLPPPAPSFVP	0.646 ± 0.1
SSLTPRVSFIIF	0.64 ± 0.12
SSMCYARIIWWG	0.596 ± 0.039
SSPAGSRLPFGS	0.75 ± 0.11
SSPCFGKLRHFL	0.686 ± 0.035
SSPFSLPSPPLS	0.676 ± 0.071

From the supplement of paper PMC10724198
